Experimental data from paper PMC11161758 (Proceedings of the National Academy of Sciences of the …, 2024).

Biological target: T1, N-terminal FLAG tag-p22phox (human, UniProt P13498 1-195)
T1 sequence: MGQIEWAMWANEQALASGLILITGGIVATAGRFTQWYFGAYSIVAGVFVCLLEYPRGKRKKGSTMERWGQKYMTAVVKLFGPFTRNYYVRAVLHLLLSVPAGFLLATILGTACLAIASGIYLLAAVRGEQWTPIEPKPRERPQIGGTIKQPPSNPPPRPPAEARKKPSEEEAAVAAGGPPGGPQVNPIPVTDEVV
Assay: cryo-EM structure

B1: NOX2 (gp91phox), catalytic subunit of phagocyte NADPH oxidase (enzyme)
chain: MGNWAVNEGLSIFVILVWLGLNVFLFVWYYRVYDIPPKFFYTRKLLGSALALARAPAACLNFNCMLILLPVCRNLLSFLRGSSACCSTRVRRQLDRNLTFHKMVAWMIALHSAIHTIAHLFNVEWCVNARVNNSDPYSVALSELGDRQNESYLNFARKRIKNPEGGLYLAVTLLAGITGVVITLCLILIITSSTKTIRRSYFEVFWYTHHLFVIFFIGLAIHGAERIVRGQTAESLAVHNITVCEQKISEWGKIKECPIPQFAGNPPMTWKWIVGPMFLYLCERLVRFWRSQQKVVITKVVTHPFKTIELQMKKKGFKMEVGQYIFVKCPKVSKLEWHPFTLTSAPEEDFFSIHIRIVGDWTEGLFNACGCDKQEFQDAWKLPKIAVDGPFGTASEDVFSYEVVMLVGAGIGVTPFASILKSVWYKYCNNATNLKLKKIYFYWLCRDTHAFEWFADLLQLLESQMQERNNAGFLSYNIYLTGWDESQANHFAVHHDEEKDVITGLKQKTLYGRPNWDNEFKTIASQHPNTRIGVFLCGPEALAETLSKQSISNSESGPRGVHFIFNKENF
modifications: N-glycan moieties at asparagines 132, 149 and 240; two hemes bound
  stoichiometry N: 1
